From patent US20220363752A1 (VERSEAU THERAPEUTICS, published 2022)
Each block holds one binder with its values, some of them ahead of it. Primed or numbered codes have the meaning given here. Biotin′ = not defined here

What was measured:
[1] = molecular target: T1, His-tagged human LRRC25 extracellular domain protein, human LRRC25-His (human, UniProt Q8N386 21-165); test: ELISA, plate-immobilized antigen
T1 construct: The entry holds the extracellular domain, a GSG linker and the His tag; also called LRRC25(ECD)-HIS
Outline: (§1)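 Wells coated overnight at 4 °C with 1 ug/mL antigen in PBS pH 7.4. Antibodies titrated from 500 nM in 3-fold steps in 1% skimmed milk/PBS, 1 h at room temperature, then HRP anti-human IgG; TMB read at A450 nm and EC50 taken from binding curves.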

[2] = molecular target: T2, His-tagged cynomolgus monkey LRRC25 extracellular domain protein, cyno LRRC25-His (cynomolgus monkey); test: ELISA, plate-immobilized antigen
T2 construct: The entry holds the extracellular domain, a GSG linker and the His tag
Outline: as §1

[3] = molecular target: T3, biotinylated human LRRC25-His protein (human, UniProt Q8N386 21-165, biotinylated (sites not given)); test: ELISA, 20 nM antibody, biotinylated antigen on streptavidin plate
T3 construct: also called Biotin LRRC25-His; biotinylated LRRC25 protein
Outline: (§2)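 Plate-bound streptavidin captured biotinylated 16- to 20-mer LRRC25 ECD overlapping peptides (2 ug/mL), with biotinylated human LRRC25-His as positive control. Chimeric anti-LRRC25 antibodies at 20 nM, 45 min at 37° C in duplicate; detection by HRP anti-human IgG and TMB at A450 nm.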

[4] = molecular target: T4, LRRC25(81-100) biotin peptide (human, not fully specified; N-terminal acetyl; C-terminal GGK-Biotin); test: as above
T4 peptide: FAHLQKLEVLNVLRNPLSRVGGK
Outline: as §2

[5] = molecular target: T5, LRRC25(96-115) biotin peptide (human, not fully specified; N-terminal acetyl; C-terminal GGK-Biotin; native Cys changed to Ser); test: as above
T5 construct: also called Biotin LRRC25 (96-115) peptide
T5 peptide: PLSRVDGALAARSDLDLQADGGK
Outline: as §2

[6] = molecular target: T2, His-tagged cynomolgus monkey LRRC25 …; test: ELISA, antibody titrated on plate-immobilized Cyno LRRC25(ECD)-His, A450nm against -log [IgG] (M), right panel
Procedure: (§3) To establish the relative binding strengths of anti-LRRC25 antibodies against human LRRC25, and their cross-reactivity with cynomolgus monkey LRRC25, antibody binding curve analyses were performed and EC50 values against plate-immobilized recombinant human and cyno LRRC25 proteins were determined.
(§4) A typical ELISA was performed by coating overnight in PBS, pH 7.4, at 4° C. in high binding microtiter wells with 1 ug/mL/100 ul per well of human LRRC25-His or cyno LRRC25-His. An anti-human LRRC25 antibody (2A3, LS Bio, LS-C174039-100) and anti-HIS-HRP (Miltenyi Biotec; 130-092-783) served as coating controls for the human and cyno LRRC25 proteins, respectively. […] Anti-LRRC25 antibodies were added (100 ul per well) at 500 nM and serially diluted 3-fold in assay buffer (1% skimmed milk in PBS, pH 7.4). The plate was incubated with gentle agitation for 1 h at room temperature. The plate was washed 3× and HRP-conjugated secondary antibody in assay buffer added [100 ul per well; goat anti-human IgG (Jackson Immunoresearch, cat #715-035-150)], and the plate was incubated as before. Antibody bound to plate-immobilized LRRC25(ECD)-HIS was determined at A450 nm using HRP substrate (3,3′,5,5′-tetramethylbenzidine (TMB); eBioscience; 00-4201-56); 100 μl/well).

[7] = molecular target: T1, His-tagged human LRRC25 extracellular …; test: ELISA, antibody titrated on plate-immobilized Human LRRC25(ECD)-His, A450nm against -log [IgG] (M), left panel
Procedure: as §3, §4

[8] = molecular target: T6, LRRC25(21-40) biotin peptide (human, not fully specified; N-terminal NH2; C-terminal GGK-Biotin; native Cys changed to Ser); test: peptide ELISA
T6 peptide: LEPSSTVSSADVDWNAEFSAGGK
Outline: as §2

[9] = molecular target: T7, LRRC25(36-55) biotin peptide (human, not fully specified; N-terminal NH2; C-terminal GGK-Biotin; native Cys changed to Ser); test: peptide ELISA
T7 peptide: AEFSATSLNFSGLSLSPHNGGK
Outline: as §2

[10] = molecular target: T8, LRRC25(51-69) biotin peptide (human, not fully specified; N-terminal acetyl; C-terminal GGK-Biotin); test: peptide ELISA
T8 peptide: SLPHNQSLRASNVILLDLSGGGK
Outline: as §2

[11] = molecular target: T9, LRRC25(66-85) biotin peptide (human, not fully specified; N-terminal acetyl; C-terminal GGK-Biotin); test: peptide ELISA
T9 peptide: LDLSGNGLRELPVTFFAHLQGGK
Outline: as §2

[12] = molecular target: T4, LRRC25(81-100) biotin peptide; test: peptide ELISA
Outline: as §2

[13] = molecular target: T5, LRRC25(96-115) biotin peptide; test: peptide ELISA
Outline: as §2

[14] = molecular target: T10, LRRC25(111-130) biotin peptide (human, not fully specified; N-terminal acetyl; C-terminal GGK-Biotin; native Cys changed to Ser); test: peptide ELISA
T10 peptide: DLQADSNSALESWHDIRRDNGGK
Outline: as §2

[15] = molecular target: T11, LRRC25(126-145) biotin peptide (human, not fully specified; N-terminal acetyl; C-terminal GGK-Biotin; native Cys changed to Ser); test: peptide ELISA
T11 peptide: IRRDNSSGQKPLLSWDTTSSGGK
Outline: as §2

[16] = molecular target: T12, LRRC25(141-159) biotin peptide (human, not fully specified; N-terminal acetyl; C-terminal GGK-Biotin; native Cys changed to Ser); test: peptide ELISA
T12 peptide: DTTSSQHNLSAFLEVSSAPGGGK
Outline: as §2

[17] = molecular target: T13, LRRC25(150-165) biotin peptide (human); test: peptide ELISA
T13 peptide: Ac-SAFLEVSSAPGLASATGG-{Biotin′}
Outline: as §2

T2 sequence (chain, as listed by the source limits assumed): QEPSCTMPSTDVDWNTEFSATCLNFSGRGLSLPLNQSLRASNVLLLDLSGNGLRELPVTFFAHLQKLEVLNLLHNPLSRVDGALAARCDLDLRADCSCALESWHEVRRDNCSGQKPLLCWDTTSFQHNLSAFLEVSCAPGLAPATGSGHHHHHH
T1 sequence (Q8N386 other isoform, or with tags, fused parts or gaps): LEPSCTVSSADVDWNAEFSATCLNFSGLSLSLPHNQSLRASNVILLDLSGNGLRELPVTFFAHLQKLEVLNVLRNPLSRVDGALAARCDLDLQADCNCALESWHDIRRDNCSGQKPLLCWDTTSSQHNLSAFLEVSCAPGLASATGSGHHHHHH
T3 sequence (Q8N386 other isoform, or with tags, fused parts or gaps): as above

- EC50 [1]: 1.2 nM
- EC50 [2]: 0.68 nM
- absorbance (A450) [3]: 2.5 A450
- absorbance (A450) [4]: 0.676 A450
- fold lower assay signal than with the biotinylated LRRC25 protein [4]: ~4 fold
- absorbance (A450) [5]: 0.095 A450
- EC50 (read off the curve) [6]: ~0.7 nM
- EC50 (read off the curve) [7]: ~1 nM
B1: anti-LRRC25 chimeric antibody 2D09 (antibody, human IgG4, V domains shown)
VH: QVTLKESGPGTVQPSQTLSLTCSFSGFSLSTSGMGVSWIRQSSGKGLEWLAHIYWDDDKRYNPSLKSRLTISKDTSSNQVFLRITSVDTADTATYYCARRPRDFYGGGHWYFDVWGAGTTVTVSS
VL: DVVMTQTPKSMSMSVGERVTLNCKASENVGTYVSWYQQKPEQSPKLLIYGASNRYTGVPDRFTGSGSATDFTLTISSMQAEDLADYHCGQSYNFPLTFGAGTKLELKR
notes: also called mAb 2D09; MAb 2D09

- binding result [8]: no binding (tested: 20 nM)
- binding result [9]: no binding (tested: 20 nM)
- binding result [10]: no binding (tested: 20 nM)
- binding result [11]: no binding (tested: 20 nM)
- binding result [12]: no binding (tested: 20 nM)
- binding result [13]: no binding (tested: 20 nM)
- binding result [14]: no binding (tested: 20 nM)
- binding result [15]: no binding (tested: 20 nM)
- binding result [16]: no binding (tested: 20 nM)
- binding result [17]: no binding (tested: 20 nM)
- EC50 [1]: 51.1 nM
- absorbance (A450) [3]: 0.305 A450
- absorbance (A450) [5]: 0.088 A450
B2: anti-LRRC25 chimeric antibody 3A08 (antibody, human IgG4)
heavy: DVKLVESGGGLVKPGGSLKLSCAVSGFTLSSYAMSWVRQTPEKRLEWVASISRGGSTYYPDSVKGRFTISRDNGRNILNLQMSSLRSEDTAIYYCARGGGSTMITSLFAYWGQGTLVTVSAASTKGPSVFPLAPCSRSTSESTAALGCLVKDYFPEPVTVSWNSGALTSGVHTFPAVLQSSGLYSLSSVVTVPSSSLGTKTYTCNVDHKPSNTKVDKRVESKYGPPCPPCPAPEFLGGPSVFLFPPKPKDTLMISRTPEVTCVVVDVSQEDPEVQFNWYVDGVEVHNAKTKPREEQFNSTYRWSVLTVLHQDWLNGKEYKCKVSNKGLPSSIEKTISKAKGQPREPQVYTLPPSQEEMTKNQVSLTCLVKGFYPSDIAVEWESNGQPENNYKTTPPVLDSDGSFFLYSRLTVDKSRWQEGNVFSCSVMHEALHNHYTQKSLSLSLGK
light: DIVMTQAAFSNPVTLGTSASISCRSSKSLLHSNGITYLYWYLQKPGQSPQLLIYQMSNLASGVPDRFSSSGSGTDFTLRISRVEAEDVGVYYCAQNLELPFTFGSGTKLEIKRTVAAPSVFIFPPSDEQLKSGTASVVCLLNNFYPREAKVQWKVDNALQSGNSQESVTEQDSKDSTYSLSSTLTLSKADYEKHKVYACEVTHQGLSSPVTKSFNRGEC
notes: also called mAb 3A08
- binding result [6]: no binding (tested: about 5e-7 M (-log [IgG] about 6.3))
